Data on two molecules can be found in patent US20170361126A1, “Compositions and Methods for Inducing Nanoparticle Mediated Microvascular Embolization of Tumors” (Vindico NanoBioTechnology, LLC, priority 2011, published 2017).

A short description of series [1]: Oxygen equilibrium binding curves (Hemox Analyzer, Hill model). To be noted: partial pressure of O2 at 50% saturation; 37° C. On the procedure: Oxygen equilibrium binding curves of PEM and free Mb dispersions may be measured using a Hemox™ Analyzer at physiological temperature (37° C.). In brief, samples may be allowed to saturate to a pO2 of 147 mm Hg using compressed air and then deoxygenated using a compressed nitrogen stream. UV-Vis absorbance measurements of oxygenated and deoxygenated samples may be recorded as a function of pO2 via dual wavelength spectroscopy. Oxygen-PEM/myoglobin equilibrium curves may be fit to a four-parameter (A0, A∞, P50, n) Hill model:
in which A0 and A∞ represent the absorbance at 0 mm Hg and at full O2 saturation, respectively. The pO2 represents the partial pressure of O2, and P50 represents the partial pressure of O2 where PEM/Mb is 50% saturated with oxygen. Lastly, ‘n’ represents the cooperativity coefficient of PEM/Mb. […] The lower O2 affinity (higher P5o) of PEM than free myoglobin may be attributed to the shielding effect of the polymersome membrane, which was further found to delay the kinetics of O2 binding to PEM.

Series [2] in a line: Serum chemistry panel and liver histology of treated tumor-bearing mice. To be noted: n=5 mice per treatment; FIG. 21. Type of series: in vivo. On the procedure:
In example studies, 0.5×10^6 to 1×10^6 4 T1 mouse mammary carcinoma cells were injected into the mammary fat pads of balb/c mice. Once the tumors were greater than 5 mm in diameter, mice were randomized and treated via tail vein catheter with PEMs (at 100 μL of 2.5 mg/mL Mb, corresponding to 50 mg/mL polymer suspensions), empty polymersomes (at equivalent polymer doses), and NIR-Mb (at equivalent myoglobin doses) (n=5 per group). NIR-Mb and PEM were reduced to their oxy-myoglobin form prior to treatment, following protocols discussed above. Mice were sacrificed at 24 h (for biodistribution/pharmacokinetic studies) or at 6-9 days (for histology and toxicology assessment following tumor efficacy studies). In both cases, EF-5 was used to stain for hypoxia and Hoechst solution for perfusion. Tumors were collected at sacrifice. Immunofluorescence (IF) was carried out to image EF-5 and Hoechst distribution throughout the tumors. The same tumor sections were also stained with hematoxylin and eosin (H&E) for immunohistologic (IHC) analysis. Blood was collected via cardiac puncture at sacrifice; plasma was isolated and stored at −80° C. for later analyses.
FIG. 21 provides results of a serum chemistry panel done for a set of tumor-bearing mice injected with each of the following treatments (n=5 mice per treatment): NIR-myoglobin (control), empty polymersomes (control), and PEMs. […]

Series [3] is described as follows: Biodistribution/pharmacokinetics after IV injection in 4T1 tumor-bearing mice. The settings on record: via the kidneys and into the bladder. The format is in vivo, balb/c mice. On the procedure: In example studies, 0.5×10^6 to 1×10^6 4 T1 mouse mammary carcinoma cells were injected into the mammary fat pads of balb/c mice. Once the tumors were greater than 5 mm in diameter, mice were randomized and treated via tail vein catheter with PEMs (at 100 μL of 2.5 mg/mL Mb, corresponding to 50 mg/mL polymer suspensions), empty polymersomes (at equivalent polymer doses), and NIR-Mb (at equivalent myoglobin doses) (n=5 per group). NIR-Mb and PEM were reduced to their oxy-myoglobin form prior to treatment, following protocols discussed above. Mice were sacrificed at 24 h (for biodistribution/pharmacokinetic studies) or at 6-9 days (for histology and toxicology assessment following tumor efficacy studies). […]
For all biodistribution studies, NIR imaging of polymersomes, NIR-Mb and PEM was conducted with an MS® Kinetic Imaging System (Perkin Elmer, AeX=745 nm, Aem=810-875 nm) equipped with a Xenogen XGI-8 gas anesthesia system. Fluorescence images were analyzed with Living Image® 4.2 software by measuring radiant efficiency of regions of interest (ROIs). […]
For the pharmacokinetic studies, 15-100 μL blood samples were drawn (using a 5.5 mm lancet, Goldenrod) from the submandibular vein of the mouse and collected directly into heparinized capillary tubes (Kimble). […] The total radiant efficiency of the plasma in each capillary tube was measured in a region of interest of consistent dimensions. […]

B1: free Mb: free (unencapsulated) myoglobin, a cytoplasmic heme protein (protein, UniProt P02144 2-154, looked up)
Myoglobin: GLSDGEWQLVLNVWGKVEADIPGHGQEVLIRLFKGHPETLEKFDKFKHLKSEDEMKASEDLKKHGATVLTALGGILKKKGHHEAEIKPLAQSHATKHKIPVKYLEFISECIIQVLQSKHPGDFGADAQGAMNKALELFRKDMASNYKELGFQG
In series [1], B1 had a P50 of around 2 mm Hg.

B2: NIR-Mb: near-infrared fluorophore (IRDye800cw NHS) covalently attached to the lysines on horse skeletal myoglobin; negative control (conjugate, UniProt P68082 2-154, looked up)
Myoglobin: GLSDGEWQQVLNVWGKVEADIAGHGQEVLIRLFTGHPETLEKFDKFKHLKTEAEMKASEDLKKHGTVVLTALGGILKKKGHHEAELKPLAQSHATKHKIPIKYLEFISDAIIHVLHSKHPGDFGADAQGAMTKALELFRNDIAAKYKELGFQG
modifications: IRDye800CW NHS on lysines
notes: near-infrared fluorophore (IRDye800cw NHS) covalently attached to the lysines on horse skeletal myoglobin; negative control
On to B2, for which the serum chemistry panel entry in series [2] is reported as “no consistently elevated levels for any parameter”. In series [3], the plasma clearance result is given as “extremely rapid plasma clearance”.
